Results: PMC5587726

Tests used:
Assay in all cases: X-ray crystallography; UMPNPP, Mg2+; Crystals: DNA mixed with ~10 mg/mL protein (4:1 molar) on ice 1 h; cryoprotectant/soak 100 mM HEPES pH 7.5, 20% PEG 4000, 10 mM MgCl2, 50 mM NaCl, 5% glycerol
[1] = biological target: hPol μΔ2 W434A (human, UniProt Q9NP87 132-397+=G+411-494, W434A;internal_change)
[2] = biological target: hPol μΔ2 G433A (human, UniProt Q9NP87 132-397+=G+411-494, G433A;internal_change)
[3] = biological target: hPol μΔ2 wildtype (DNA polymerase mu catalytic domain, Loop2 deleted) (human, UniProt Q9NP87 132-397+=G+411-494, internal_change)

Measured: binding result

Sequence of hPol μΔ2 G433A (Q9NP87 other isoform, or with tags, fused parts or gaps G433A/| G433A G433A): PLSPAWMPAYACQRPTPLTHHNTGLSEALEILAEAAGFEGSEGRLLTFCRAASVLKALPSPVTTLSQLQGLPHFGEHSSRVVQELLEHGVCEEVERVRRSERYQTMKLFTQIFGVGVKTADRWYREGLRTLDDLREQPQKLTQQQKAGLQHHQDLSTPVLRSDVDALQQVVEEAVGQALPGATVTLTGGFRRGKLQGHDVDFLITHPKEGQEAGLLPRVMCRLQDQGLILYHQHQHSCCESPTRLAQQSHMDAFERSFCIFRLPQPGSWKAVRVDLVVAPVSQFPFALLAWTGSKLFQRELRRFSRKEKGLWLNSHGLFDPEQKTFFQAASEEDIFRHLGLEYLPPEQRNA
Sequence of hPol μΔ2 wildtype (DNA polymerase mu catalytic domain, Loop2 deleted) (Q9NP87 other isoform, or with tags, fused parts or gaps | mutant): as the sequence (Q9NP87 other isoform, or with tags, fused parts or gaps G433A/| G433A G433A) above, with A290G counted along it
Sequence of hPol μΔ2 W434A (Q9NP87 other isoform, or with tags, fused parts or gaps W434A/| W434A W434A): as the sequence (Q9NP87 other isoform, or with tags, fused parts or gaps G433A/| G433A G433A) above, with A290G, W291A counted along it

B1: 1-nt gapped DNA (pre-catalytic) (dsDNA)
DNA 1: CGGCATACG
DNA 2: CGTA
DNA 3: GCCG
modifications: 5'-phosphate on downstream primer GCCG
binds: [1] | [2] | [3]
